Reference: the nanobody polyreactivity screen of Harvey et al. (2022)

test: yeast display, Sf9 membrane polyspecificity reagent, FACS + sequencing; frameworks hold sequencing errors
Procedure, shortened: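 A synthetic nanobody library was expressed on Saccharomyces cerevisiae BJ5465 by galactose induction for 36–48 hours. The library was stained for 1 hour at 4 °C with 10% biotinylated, detergent-solubilized Sf9 membrane reagent and enriched with streptavidin microbeads before FACS. Low and high (top ~1%) gates were set on anti-HA fluorescence for expression and streptavidin fluorescence for reagent binding, and each polyreactivity label reflects the gate of origin.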

Sequence	polyreactivity (PSR sort gate)
QVQLVESGGGLVQAGGSLRLSCAASGIIFFSNAMGWYRQAPAQEMELVAAITGGSSTNYADSVKGRFTISRDNAKNTVYLQMNSLKPEDTAVYYCNAPTKSTPRSEPIPYYEFDYWGQGTQVTVSS	low polyreactivity
QVQLVESGGGLVQAGGSLRLSCAASGLIFYSYAMGWYRQAPGKERELVAAINGGGGSTYYADSVKGRFTISRDNAKNTVYFQMNSLKPEDTAVSYCAAPYYRLTGWSRYDYWGQGTQVTVSS	high polyreactivity
KVQLVESGAGLVQAGGSLRLSCAAYGSIFVGYHMGWYRQAPGKERELVAGITGAGSTNYADSVKGRFTISRENAKNTVYLQMNSLKPEDTAVYYCAADYDTPQGTKYYYWGQGTKVTVSS	low polyreactivity
QVQLVESGGGLVQAGGSLRLSCAASGLTFGPNAMGWYRQAPGKERELVAAITKSGGSTYYADSVKGRFTISRDNAKNTVYLQMNSLKPEDTAVFYCAARAGYKVFGYWGQGTQVTVSS	high polyreactivity
QVQLVDSGGGLVQAGGSLSLSCAASGITFYRYMGLYRQGPWKSRELVASITGRGGSTYYADSVKGRFTISRDNAKNTGYLEMNSLKPEDTAVYYCAAVFPTKSSTWYDYWGQGTQVTVSS	high polyreactivity
QVQLVESGGGLVQAGGSLRLSCAASGFTFYSYAMGWYRQAPGKEWELVAAISRRGGSTYYADSVKGRFTISRDNAKNTVYLQMNCLKPEDTAVYYCAAEDSNSRYLYGYDYWGQGTQVTVSS	high polyreactivity
QVQLVESGGGLVQAGGSLRLSCAASGRIFGSYAMGWYRQAPGKERELVAGIRSVGSTNYADSVKGRFTISRDNAKNTVYFQINSLKPEDTAVYYCAARLWHLSYAGQGGDYWGHGTQVTVSS	low polyreactivity
QVQLVESGGGLVQAGGSLRLSWAASGSTLLSNAMGWSTQAPGKERELVAAINYSGGRTYYADSVKGRFTISRDHAQNTVYLQMNSLKPEDTAVYYCNALSSGHGSSSRYDYWGQGTQVTVSS	low polyreactivity
QVQLVESGEGLVQAGGSLRLSCAASGRIFAWYAMGWYRQAPGKERELVAAIDRGDNTYYADSVKGRFTISRDNAKNTGYLQMNSLKPEDTAVYYGFYYGAHEPYGYWGQGTQVTVSS	low polyreactivity
QVQLVESGGCLVQAGGSLRLSCAASGFIFAYNAMGWYRQAPGKERELDAAISWSGGSTYYADSVKGRFTISRDNAKNTVYLQMNSLKPEDTAVYYCNKYIRYPFKRYGYWGQGTQVTVSS	high polyreactivity
QVQLVESGGGLVQAGGSLRLSCAASGSTFTPNARGSYRQAPGKERELVAAINYLGGSTYYADSVKGRFTISRDNAKNTVYVQMNSLKPEDTAVYYCARRQYFRGQRYDYWGQGTQVTVSS	high polyreactivity
QDQLVESGGGLVQARGRQRLSCAATGSTFYRNALGWYRQAPGKEREFVAAISFRGGGTYADSVKGRFTISRDNAKNTVYLQMNSLKPEDTAVYYFGADHLSYRRRYEYWGQGTQVTVSS	low polyreactivity
QVQLVESGGGLVQAGGSLRLSCAASGRTFGYNAMGWYRQAPVKERELVAAIRTIGDSTYYADSVKGRFTISRDNAKNTVYLQMNSLKPEDTAVFYCAARKLRSRYDYWGQGTQVTVSS	high polyreactivity
QVQLVESGGGLVQAGGSLRLSCAASGRIFQRNAMGWYRQAPGKERELVAAITSTGVRTYYADSVKGRFTISRDNAKNTVFLQMNSLNPEDTAVYYCAVRGERRYYGSKEDYWGQGTQVTVSS	high polyreactivity
QVQLVESGGGLVQAGGSLRVSCAASGFIFLYYAMGWYRQAPGKERELVADISRGADTKYADSVKGRFTISRDNAKNTVYLQMNSLKPEDTAVYYCATDITTFWFPYPGVELGYWGQGTQVTVSS	low polyreactivity
QVQLVESGGGLVHAGGSLRLSCAASGFILSANDMGWYRQAPGQERELVADIDSSGRTNYADSVKGRFTISRDNAKNTVYLQMISLKPEDTAVYYCATPPDDKGGGYLGFDYWGQGTQVTVSS	low polyreactivity
QVQLVESGGGLVQAGGSLRLSCAASGRTFEGNAMGWYRQAPGKERELVAAISGSGGRTYYADSVKGRFTISRDHAKNTVYLPMNSLKPEHTAVYYATLYSVYNPWRFNYWGQGTQVTVSS	high polyreactivity
QVQLVESGGGLVQAGGSLRLSFAASGNILKSYAMGWYRQAHGKERELVAAISSSGGSTYYADSVKGRFTISRDNAKNSVYLQMNSLKPEDTAVYYCNAGAKSGKYYYWGQGTKVTVSS	low polyreactivity
QVQLVESGGGLVQAGGSLRLSCAASGFTFYQYAMGWYRQAPGKERELVAAISSGGSTYYADSVKGRFTISRDNAKNTVYLQMNSLKPEDTAVYYCAARFYRPGVKQYGYWGQGTQVTVSS	high polyreactivity
QVQLVESGGGLVQAGGSLRLSCAASGSIFRNYAMGLYRQAPGKERELVAAISSRGGTTHYADSVKGRFTISRDNAKNTVYLQMNSLKPEDTAVYYCAADYYLATNPAPLAAGRGYWGQGTQVTVSS	high polyreactivity
QVQLVESGGGLVQAGGSLRLSCAASGFTLRGNAMGWYRQAPGKESELVAAISTGGSTYNADSVKGRFTISRDNAKITVYLQMNSLNPEDTAVYYCARRGWFHYRYYYWGQGSQVTVSS	high polyreactivity
QVQLVESGGGLVQAGGSLRLSCAASGRTFRYNAMGWYRQAPGKERELVARISRGGSTYADSVKGRFTISRDNAKNTVYLQMNSLKPEDTAVYYCAAYPTKHNQSEYYYWGQGTQVTVSS	low polyreactivity
